The results in this text go back to CN116284408A (SUNSHINE GUOJIAN PHARMACEUTICAL SHANGHAI CO LTD, dated 2023).

Where a chain is given by its changes, count along the chain named.

The labels stand for the following.
B1: ch-27A3 (antibody, human IgG1, kappa, V domains shown)
VH: QVQLQQPGAELVRPGASVKLSCKASGYSFTIYWMHWVKQRPGQGLEWIGMSHPSDSESRLNQKFKDKATLTVDKSSSTAYMQLSSPTSEDSAVYYCSRPYYGSSAWFADWGQGTLVTVSA
VL: DIVMTQSPSSLAMSVGQKVTMSCKSSQSLLNSSNQKNYLAWYQQKPGQSPKLLIYFASTRESGVPDRFIGSGSGTDFTLSISSVQAEDLADYFCQQHYSFPLTFGAGTKLELRR
notes: also called 嵌合抗体ch-27A3
B2: ch-19E11 (antibody, human IgG1, kappa, V domains shown)
VH: EVQLQQSGPELEKPGASVKISCKASGFSFTGYNMNWVKQSNGKSLEWIGNIDPYYGGTTYNQKFKGKATLTVDISSSTAHMELKSLTSEDSAVYFCARSVTTVGYPMDYWGQGTSVTVSS
VL: DIVMTQSPSSLAMSVGQKVTMNCKSSQSLLNSYNHKNCLAWYQQKPGQSPKLLISFASARESGVPDRFIGSGSGTDFTLTISSVQAEDLADYFCHQHYTSPLTFGAGTKLELKR
notes: also called 嵌合抗体ch-19E11
B3: 45D1 (antibody, V domains shown)
VH: EMQLVESGGDLVKPGGSLKLSCAVSGFTFSTYDMSWIRQTPDKRLEWVATISSGGSYTYYPDSVKGRFTISRDNAKNTLYLQMSSLQSEDTAIYYCASLNWGFDHWGQGTTLTVSS
VL: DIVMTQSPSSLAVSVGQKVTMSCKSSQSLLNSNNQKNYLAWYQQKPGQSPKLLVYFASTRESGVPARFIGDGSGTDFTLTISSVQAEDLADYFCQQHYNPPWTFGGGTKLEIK
B4: 56E8 (antibody, V domains shown)
VH: QVQLKESGPGLVAPSQSLSITCTVSGFSLTAYGVHWVRQPPGKGLEWLGGIWAGGSTKSNSALMSSLSISKDNSKSQVFLKMNSLQTDDSAMYYCARALFYGYFDVWGAGTTVTVSS
VL: DIVMTQSQKFMSTSVGDRVSVTCKASQSVDTNVAWYQQRPGQSPEALIFSASYRYSGVPDRFTGSGSGTDFTLTISNVQSEDLAEYFCQQYNVYPYTFGGGTNLEIK
B5: 50A5 (antibody, V domains shown)
VH: B4 VH with S56N, K58Q, N60H, S66R, S68T, N73I, K81R, Y103N
VL: B4 VL with K9R, N32S, V93S
B6: 23F6 (antibody, V domains shown)
VH: QVQLKESGPGLVAPSQSLSITCTVSGFSLTAYGVHWVRQPPGKGLEWLGGIWAGGNTQSHSALMSRVSISKDISKRQVFLKMDRLQTDDSAIYYCARALFYGNFDVWGAGTTVTVSS
VL: B4 VL with K9R, N32S, V93S, I106M, K107R
B7: 11C8 (antibody, V domains shown)
VH: B4 VH with K58Q, S66R, N73S, K81R, Y103N
VL: B4 VL with N32S, S76N, V93S
B8: 19E11 (antibody, V domains shown)
VH: B2 VH
VL: DIVMTQSPSSLAMSVGQKVTMNCKSSQSLLNSYNHKNCLAWYQQKPGQSPKLLISFASARESGVPDRFIGSGSGTDFTLTISSVQAEDLADYFCHQHYTSPLTFGAGTKLELK
notes: Mouse monoclonal antibody from a hybridoma, purified on Protein G; also called 鼠源抗体19E11; 杂交瘤抗体19E11
B9: 27A3 (antibody, V domains shown)
VH: B1 VH
VL: DIVMTQSPSSLAMSVGQKVTMSCKSSQSLLNSSNQKNYLAWYQQKPGQSPKLLIYFASTRESGVPDRFIGSGSGTDFTLSISSVQAEDLADYFCQQHYSFPLTFGAGTKLELR
notes: Mouse monoclonal antibody from a hybridoma, purified on Protein G; also called 鼠源抗体27A3; 杂交瘤抗体27A3
B10: 8H2 (antibody, V domains shown)
VH: EVNLVESGGGLVKPGGSLKLSCAASGFAFSNYDMSWVRQTPEKRLEWVATISGGGSYTYYPDNVKGRFTISRDNAMNTLYLQMSSLRSEDTALYYCASVNWGFPYWGQGTLVTVSA
VL: DIVMSQSPSSLAVSIGEKVTMSCKSSQSLLYSRNQKNYLAWYQQKPGQSPILLIYWTSTRESGVPDRFTGSGSGTDFTLTISGVKAEDLAVYYCQQYYTSPWTFGGGTRLEIK
B11: 15D10 (antibody, V domains shown)
VH: QVQLQQPGAELVKPGASVKMSCKASGYTFTTYWMHWVKQRSGQGLEWIGVIDPSDSYTRYNQKFKDKATLTVDTSSSTAYMHLTSLTSEDSAVYYCTRSGIGNSFIMDYWGQGTSVTVSS
VL: QVVLTQSPAIMPAFPGEKVTISCSASSSVIYMFWYQQKPGSSPKPWIYRTSNLASGVPARFTGSGSGTSYSLTISSMEAEDAATYYCQQYHSYPLTFGVGTKLELK
B12: 51E12 (antibody, V domains shown)
VH: QVQLQQSGPELVKPGASVKISCKVSGNAFSLSWMNWVKQRPGQGLEWIGRIYPGDGDSNYNGKFKGKATLTADKSSSTVFMQLSSLTSVDSAVYFCANYYGSSSWFVYWGQGTLVTVSA
VL: DVVMTQTPLSLPVSLGDQASISCRSSQSLVHSYGNTYLHWYLQKPGQSPKLLIYKVSNRFSGVPDRFSGSGSGTDFTLKISRVETEDLGVYFCSQSTHFPWTFGGGTKLEIK
B13: hu-27A3 (antibody, human IgG1, kappa, V domains shown)
VH: QVQLVQSGAEVKKPGASVKVSCKASGYSFTIYWMHWVRQAPGQGLEWIGMSHPSDSESRLNQKFKDRATLTVDKSTSTAYMELSSLRSEDTAVYYCSRPYYGSSAWFADWGQGTLVTVSA
VL: DIVMTQSPDSLAVSLGERATINCKSSQSLLNSSNQKNYLAWYQQKPGQSPKLLIYFASTRESGVPDRFSGSGSGTDFTLTISSLQAEDVAVYYCQQHYSFPLTFGAGTKLELRR
notes: Humanized IgG1/kappa, made in HEK-293E cells; also called 27A3人源化抗体; 人源化后的27A3
B14: hu-19E11 (antibody, human IgG1, kappa, V domains shown)
VH: QVQLVQSGAEVKKPGASVKVSCKASGFSFTGYNMNWVRQAPGQSLEWIGNIDPYYGGTTYNQKFKGRATLTVDISISTAYMELSRLRSDDTAVYFCARSVTTVGYPMDYWGQGTSVTVSS
VL: B13 VL with S33Y, Q35H, Y38C, Y55S, T59A, Y93F, Q95H, S99T, F100S, R113K
notes: Humanized IgG1/kappa, made in HEK-293E cells; also called 19E11人源化抗体; 人源化后的19E11

The target of one assay is T1, MUC17 on LS174T colorectal cancer cells (human, UniProt Q685J3 26-4493). As to the kind of experiment: flow cytometry on LS174T cells, chimeric antibody titrated.
For B1, the EC50 worked out at 0.0435 nM.

Another assay addresses T2, 人MUC17-Fc蛋白 (human, UniProt Q685J3 4131-4390).
T2 construct: range 4131-4390; No linker is described; also called MUC17抗原; not shown: C-terminal Fc tag
The assay can be described thus: ELISA, coated MUC17 antigen, chimeric antibody titrated.
With B2, it took 0.14 nM to reach a half-maximal effect (EC50).
The molecule B1 returned an EC50 of 0.0785 nM.

For another assay, the target named is T2, 人MUC17-Fc蛋白. The assay can be described thus: ELISA, MUC17-Fc coated, murine antibody titrated.
Take B3: the EC50 came to 0.036 µg/mL and the Top came out at 2.87 OD450.
B4 had an EC50 of 0.0276 µg/mL and a Top of 1.97 OD450.
The corresponding values for B5 are 0.0813 µg/mL and 2.64 OD450.
Regarding B6, it took 0.0623 µg/mL to reach a half-maximal effect (EC50) and the Top stood at 2.88 OD450.
On the same counts, the results for B7 are 0.108 µg/mL and 2.25 OD450.
B8 gave an EC50 of 0.0376 µg/mL.
B9 registered an EC50 of 0.0202 µg/mL.
For B10, the response was half-maximal at 0.0556 µg/mL (EC50) and the Top turned out to be 2.74 OD450.
With B11, the response was half-maximal at 0.0317 µg/mL (EC50) and the Top turned out to be 2.79 OD450.
As to B12, a half-maximal response (EC50) required 0.0372 µg/mL and the Top was found to be 2.88 OD450.

The target in the next assay is T1, MUC17 on LS174T colorectal cancer cells. The assay can be described thus: flow cytometry on LS174T cells, murine antibody titrated. On the set-up: Top: unit not given here.
B8 gave an EC50 of 0.024 µg/mL.
As for B9, the EC50 was determined as 0.00656 µg/mL.

The target in the next assay is MUC17 on LS174T colorectal cancer cells (human, UniProt Q685J3 26-4493). The assay is described as above. On the set-up: Top: unit not given here.
In turn, B3 came in with an EC50 of 0.273 µg/mL and a Top of 457.
B4 returned an EC50 of 0.11 µg/mL and a Top of 296.
Molecule B5 gave an EC50 of 0.542 µg/mL and a Top of 500.
The molecule B6 displayed an EC50 of 0.395 µg/mL and a Top of 460.
As for B7, the EC50 amounted to 0.87 µg/mL and the Top turned out to be 469.
The corresponding values for B10 are 0.164 µg/mL and 445.
Turning to B11, a half-maximal response (EC50) required 3.43 µg/mL and the Top was found to be 382.
Take B12: the EC50 was found to be 0.0472 µg/mL and the Top was determined as 878.

A further assay has as its target T2, 人MUC17-Fc蛋白. The assay can be described thus: ELISA, coated MUC17 antigen, antibody titrated.
The molecule B2 had an EC50 of 0.14 nM.
The molecule B1 registered an EC50 of 0.0785 nM.
As to B13, the EC50 amounted to 0.0766 nM.
Turning to B14, a half-maximal response (EC50) required 0.131 nM.

The next assay addresses T1, MUC17 on LS174T colorectal cancer cells. As to the kind of experiment: flow cytometry on LS174T cells.
B13 displayed an EC50 of 0.03 nM.
The same measure, in the same setting: next, B14: 0.085 nM.
